Experimental data taken from patent publication US20240383953A1, “NOVEL NAN[…] NANOG PRION-LIKE REPEATS” (BAYLOR COLLEGE OF MEDICINE, priority 2021, published 2024).

Assays:
[1] = ThT fluorescence aggregation kinetics of NANOG CTD; format: physicochemical, human
[2] = Gel-like condensate formation of NANOG CTD; format: physicochemical, human; conditions: absence of crowding agents

B1: NANOG CTD: C-terminal domain construct of human NANOG, contains the WR prion-like domain (protein)
chain: QKNNWPKNSNGVTQKASAPTYPSLYSSYHQGCLVNPTGNLPMWSNQTWNNSTWSNQTQNIQSWSNHSWNTQTWCTQSWNNQAWNSPFYNCGEESLQSCMQFQPNSPASDLEAALEAAGEGLNVIQQTTRYFSTPQTMDLFLNYSMNMQPEDV
**Q.** With B1 as the molecule, how does the “ThT aggregation time constant (1/R)” value ([1]; 1.2 μM CTD (n=9)) read?
**A.** 4.8 ± 0.2 min

**Q.** And the “ThT aggregation time constant (1/R)” value ([1]; 2.4 μM CTD (n=6))?
**A.** 9.5 ± 0.1 min

**Q.** And the “concentration at which gel-like condensates form” value [2]?
**A.** 5 µM
